Laboratory results as given in article doi:10.1101/2020.02.28.969287.
Like-named read-outs stand apart in the source and are kept apart here.

Experiments:
[1] = biological target: KcsA (pT7-KcsA construct, N-terminal His-tag) in native SMA nanodiscs (Streptomyces lividans) (UniProt P0A334); experiment: mass photometry + other: lipid-to-protein ratio
[2] = biological target: E. coli bo3 oxidase (E. coli) (UniProt P0ABJ3); experiment: mass photometry
[3] = biological target: E. coli bo3 oxidase (E. coli) (UniProt P0ABJ3); experiment: SEC-MALS
[4] = biological target: potassium channel KcsA from Streptomyces lividans (pET-28a construct, N-terminal His-tag) (Streptomyces lividans) (UniProt P0A334); experiment: mass photometry
[5] = biological target: potassium channel KcsA from Streptomyces lividans (pET-28a construct, N-terminal His-tag) (Streptomyces lividans) (UniProt P0A334); experiment: mass photometry; remark: listed apart in the source
[6] = biological target: E. coli outer membrane protein F (OmpF) (E. coli) (UniProt P02931); experiment: native MS
[7] = biological target: E. coli outer membrane protein F (OmpF) (E. coli) (UniProt P02931); experiment: mass photometry

KcsA (pT7-KcsA construct, N-terminal His-tag) in native SMA nanodiscs (from UniProt P0A334 1-160) (natural protein)
stoichiometry N [1]: 8

E. coli bo3 oxidase (from UniProt P0ABJ3 1-204) (complex)
relative abundance of dimers [2]: 20% | relative abundance of monomers [2]: 80% | stoichiometry N [2]: 2 | relative abundance of dimers [3]: 28% | relative abundance of monomers [3]: 72% | stoichiometry N [3]: 2

potassium channel KcsA from Streptomyces lividans (pET-28a construct, N-terminal His-tag) (from UniProt P0A334 1-160) (natural protein)
stoichiometry N [4]: 4 | stoichiometry N [5]: 4

E. coli outer membrane protein F (OmpF) (from UniProt P02931 23-362) (natural protein)
stoichiometry N [6]: 3 | stoichiometry N [7]: 3
